According to US20150351390A1, “COMPOSITIONS AND METHODS FOR AUXIN-ANALOG CONJUGATION” (PIONEER HI-BRED INTERNATIONAL, INC., priority 2012, published 2015):

Key:
Type in all cases: biochemical
[1] = LC-MS assay of GH3 conjugation of 2,4-D with Asp or Glu; conditions: LC-MS; for Detected auxin conjugates: 2,4-D-Asp: 2,4-D with Asp; for Detected auxin conjugates: 2,4-D-Glu: 2,4-D with Glu
In short: (§1)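 N-terminal His-tagged GH3 homologs, expressed in E. coli C41(DE3) and Ni-NTA purified, at 44 to 164 μg/mL incubated 3 h at 30 °C in 20 mM Tris-HCl pH 8.0, 5 mM MgCl2, 1 mM DTT, 5 mM ATP, 5 mM auxin (IAA, 2,4-D or dicamba) and 5 mM Asp or Glu. Conjugates quantified by LC-MS against standards after MeOH precipitation; kinetics from Michaelis-Menten fits of initial velocities.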

[2] = LC-MS assay of GH3 conjugation of dicamba with Asp or Glu; conditions: LC-MS; for Detected auxin conjugates: Dicamba-Asp: dicamba with Asp; for Detected auxin conjugates: Dicamba-Glu: dicamba with Glu
Protocol: To detect and monitor the formation of acyl conjugates with 2,4-D or dicamba, a sensitive LC-MS method was developed using the respective amino acid conjugate standards. […] […] […] The supernatant was diluted 20× in water and then analyzed by LC-MS (AB Sciex 4000 QTrap coupled with Shimadzu Nexera UHPLC) using a Phenomenex Luna 3 μm Phenyl-Hexyl (00B-4256-Y0) column. The concentration of the conjugates was calculated based on the standards. Kinetic parameters were estimated by fitting initial velocity values to the Michaelis-Menten equation.
The GH3 superfamily conjugase activity analysis of IAA, 2,4-D or dicamba with Asp or Glu was done using LC-MS to analyze the final conjugate products as described in Example 1. Protein sequences of GH3 homologs (Table 3) were obtained from public databases (NCBI, http://www.ncbi.nlm.nih.gov/) by Blast analysis of AtGH3.17 protein sequence (accession # Q9FZ87). Coding sequences were designed for optimal expression in E. coli based on the protein sequences and synthesized. Synthesized coding sequences along with N-term his-tag coding sequences were cloned into a pET24a-based E. coli expression vector. The E. coli expression vectors were transformed into OverExpress C41(DE3) cells (Lucigen) for protein expression. Recombinant E. coli strains were inoculated into 5 ml LB media supplemented with 40 mg/L kanamycin and cultured overnight at 37° C. The overnight culture (0.5 mL) was inoculated into 50 mL LB medium plus 40 mg/L kanamycin and grown at 30° C. until OD600 reached 0.6. The cultures were induced with 0.2 mM IPTG at 16° C., 230 rpm overnight. Cells were harvested by centrifugation at 7,000 rpm for 10 mins. The cell pellet from 50 mL of cell culture was frozen and thawed twice and then lysed in 800 μL lysis buffer A (150 mM NaCl, 50 mM Tris-HCl pH 8.0, 5 mM MgCl2, 10% glycerol) plus 20 mM imidazole, 1 mM DTT, 0.2 mg/ml lysozyme, 1/200 protease inhibitor cocktail (EMD set3, EDTA free) and 1/2000 endonuclease. Lysate was then centrifuged at 13,000 rpm for 30 min at 4° C. Supernatant was loaded onto 200 μL Ni-NTA columns pre-equilibrated with buffer A with 20 mM imidazole at 4° C. Each column was then washed with (1) 2×800 μL of buffer A with 10 mM imidazole, (2) 2×800 μL of buffer A with 20 mM imidazole and (3) 2×200 μL of buffer A with 50 mM imidazole. Protein was eluted with 200 μL of buffer A with 250 mM imidazole. The concentration was measured by Bradford assay. Purified protein was used in conjugation reaction assays as described in example 1.

[3] = LC-MS assay of GH3 conjugation of IAA with Asp or Glu; conditions: LC-MS; for Detected auxin conjugates: IAA-Asp: IAA with Asp; for Detected auxin conjugates: IAA-Glu: IAA with Glu
In short: as §1

Molecule	Detected auxin conjugates: 2,4-D-Asp [1]	Detected auxin conjugates: 2,4-D-Glu [1]	Detected auxin conjugates: Dicamba-Asp [2]	Detected auxin conjugates: Dicamba-Glu [2]	Detected auxin conjugates: IAA-Asp [3]	Detected auxin conjugates: IAA-Glu [3]
GmGH3-6: GH3 protein, accession XP_003540891.1 (protein, Glycine max) MPQHQPTLMEPVLSYNNSTNNGNGNSDYDIISWFEDVSQNAGFVQTQLLFQILKQNYGVEYLKKWLGSYNILEMDACALESLFSSVVPLASHADFEPFIQRIADGDTAPLLTQQPITTLSLSSGTTEGRQKFVPFTRHSAQTTLQIFTLAAAYRSRIYPIRQGGRILEFIYSSNRFKTKGGLTVGTATTHYYASEEFNIKQHKTKSFTCSPQEVISGGDYKQSTYCHLLLGLFFSDQVEFITSAFIYSMVQAFTTFEELWREICNDIRDGTLSSRIKSPKMRKAVLDIISPNPNLAAKLEDACKGLEVVDWFGLIPKLWPNAKYVYSIMTGSMQPYLKKLRHYANGLPLVSADYGSTESWIGVNVDPSLPPEDVTFAVVPTFSYFEFIPLHRNEKNFSSGGDDFIEDKPIPLSQIKVGQEYEVVLTTFTGLYRCRLGDVVEVAGFHNGTPKLNFVCRRKLILTINIDKNTEKDLQLVVERGSHILNMTSRGELVDFTSYADVSKQPGHYVIYWEIKGEVEDKILGACCNEMDKSFADHGYVVSRKTNSIGPLELCVLESGTFKKILDSFIANGAALSQFKTPRCTNNHVLLKILNTCTTKKFRSTAYNSSMEQ	No	No	No	No	Yes	Yes
GmGH3-10: GH3 protein, accession XP_003541929.1 (protein, Glycine max) MPEAPKHLCHDPKDNLDDDDDDGSSNNNKRALEYIEEVTTNADEIQEKVLAQILSRSANAEYLQRHGLEGRTDRNTFKNIMPVVTYEDLKPDIDRIANGDTSPILCSKPISEFLTSSGTSGGERKLMPTIEEELERRSMLYSLLMPVMDQFVPDLDKGKGMYFLFTKSEAKTPGGLLARPVLTSYYKSSHFKHRKHDPYTNYTSPNETILCHDSYQSMYSQLLCGLYQNEEVLRVGAVFASGFIRALKFLEKHFVCLCNDIRTGTLDAKITDPSVREAVMKVLKPNPTLADFVETECMKGSWKGIITRIWPNTKYVDVIVTGTMSQYIPILDYYSNGLPLVCTMYASSECYFGLNLNPSCDPSEVAYTLIPTMAYFEFLPLDEINGHTNSISQLEQEHLVDLADVKLGQEYELVVTTYAGLYRYRVGDILRVAGFKNKAPQFNFVCRKNVVLSIDSDKTDEVELHNAVKSGAEQLAEFNASLTEYTSCVDTSTIPGHYVLYWEISTNDHTPTIPSSVFGHCCLSIEESLNSVYRQGRVSESIGPLEIKVVENGTFDKLMDFALSQGASINQYKTPRCVTYAPILDLLNSKVLSSYISPKCPNWVPGHKDWCTLH	Yes	Yes	No	No	Yes	Yes
GmGH3-2: GH3 protein, accession XP_003521802.1 (protein, Glycine max) MLEKVEEFNMDKVIQEFELLTRDAERVQRETLKRILEDNASAEYLQSLGLNGRTDPESFKACVPMVTHKELEPYIYRIIDGDASPILTGKPITTMSLSSGTTQGKPKYVPWNDELYETTMQIYQTSFAFRNREFPIKNGKALSFIYGSKQLKTKGGLAARTATSNVFCSAGYKCAMRALQSQCCSPDEVIFGPDFFQSLYCHLLCGLIFREEVEFVSSTFAHSIVHAFRTFEQVWEELCNDIREGVLTRNVTVPSIRMAMSKLLKPNPELANAIHKKCTGLSNWYGLIPELFPNAKYIYGIMTGSMEPYLKKMRHYAGELPLLTADYGSSEGWIAANVNPQLPPEYATYAVLPHIGYFEFIPLLELENTKPLGLTQVKVGQEYEIVMTNPAGLYRYRLGDVVKVMGFHNSTPELKFIRRSSLLLNINIDKNTEKDLQLAVEAAGKLLAEEKLEVVDFSSQVDLSKEPGHYVIFWEISGDASQELLHECCNCLDKSFVDAGYTSSRKVNCIGALELRLVRRGTFQKILDHYLGLGTAVSQYKTPRCVGPTNTRVLQILSENVVNNYLSTAFN	No	No	No	No	Yes	No
